Measured values from the nanobody polyreactivity screen of Harvey et al. (2022).

Assay: yeast display, Sf9 membrane polyspecificity reagent, FACS + sequencing; frameworks hold sequencing errors
Procedure, shortened: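 Genes from sorted yeast were amplified by colony PCR, read by MiSeq 2 × 250 sequencing and filtered on CDR length. These cells carried a synthetic nanobody library in Saccharomyces cerevisiae BJ5465 and were sorted by FACS into low and high (top ~1%) gates on anti-HA and streptavidin fluorescence. Polyreactivity is labelled according to the gate of origin.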

| Sequence | polyreactivity (PSR sort gate) |
| --- | --- |
| QVQLVESGGGLVQAGGSLRLSCAASGSTFGPYAMGWYRQAPGKEREMVAAISKTGGRTYYADSVKGRFTISRDNAKNTVYLQMHSLKPEDTAVYYCAADVGTAQSTYGYWGQGTQVTVSS | high polyreactivity |
| QVQLVESGGGLVQAGGSLRLSCAASGRIFWWYSMGWYRQAPVKERELVAAISTGSRTYYADSVKGRFTISRDNAKNTVFLQMNSLKPEDTAVYYCVADGLYSVSRSSIFEYWGQGTQVTVSS | low polyreactivity |
| QVQLVESGGGLVQAGGSLRLSCAASGSIFSSYALGWYRQAPGKVRELVAAITKRADRTNYADSVKGRFTISRDNAKNTVYLQMNSLKPEDTAVYYCNAEGQNDHPSNGYISYKYDYWGQGTQVTVSS | low polyreactivity |
| QVQLVESGGGLVQAGGSLRLSCAASGYTFDKYAMGWYRQAPGKERELVAAISSGGRTYYADSVKGRFTISRDNAKKTVYLQMNSLKPEDTAVYYCAKGSAGRGMDSWGQGTQVTVSS | low polyreactivity |
| QVQLVESGGGLVQAGGSLRLSCAASGSTFTLYAMGWSRQAPGKERELVAAISRSGGRTYYADSVKGRFTISRDNAKNTVYLQMNSLKPEDTAVYYCNAPYKQDYDYWGQGTQVTVSS | high polyreactivity |
| QVQLVESGGGLVQAGGSLRVSCAASGIIFVVYDMGWYRQAPGKERELVAAINWSGGSTYYADSVKGRFTISRDNAKNTVYLQMNSLKPEDTAVYYCAAESFSDGSPYNYWGQGTQVTVSS | low polyreactivity |
| QVQLVESGGGLVQAGGSLRLSCAASGIIFKSYAVGWYRQAPGKERELVAAISSGGSTNYADSVKGRFTISRDNAKNTVYLQMNSLKPEDTAVYYCAKRYTATEWHGERDYWGQGTQVTVSS | high polyreactivity |
| QVQLVESGGGLVQAGGSLRLSCAASGLISVIYAMGWYRQAPGKERELVAAISWRGANTYYADSVKGRFTISRDNAKNTVYLQMNSLKPEDTAVYYCNAVLYVWFAPYRYDYWGQGTQVTVSS | high polyreactivity |
| QVQLVESGGGLVQAGGSLRLSCAASGRTFATYAMGWYRPAPGKERELVAAISRSGSTTYYADSVKGRFTISRDNAKNTVYLQMNSLKPEDTAVYYCNAKFRKADYDYWGQGTQVTVSS | high polyreactivity |
| QVQLVESGGGLVQAGGSLRLSCAASGGTFRVYAMGWYRQAPGKERELVAAITGRGGSTYYADSVKGRFTISRDNAKNTVYLQMNSLKPEDTAVYYCAKDPVTTYYKYDYWGQGTQVTVSS | low polyreactivity |
| QVQLVESWGGLVQAGCSLRLRCAASGRIFGPYAMGWYRQARGQERELVAAISRSGGSTYYADSVKGRFTISRDNAKNTVYLQMKSLNPEDTAVYYCNARFVIYSRVDYWGQGTQVTVSS | low polyreactivity |
| QVQLVESGGGLVQAGGSLRLSCAASGSTFYYNAMGWYRQAPGKERELVASISRSGGSTYADSVKGRFTISRDNAKNTVYLQMNSLKPVDTAVYYCNADAYGTPEFTSYAVRYDYWGQGTQVTVSS | low polyreactivity |
| QVQLVESGGGLVQAGGSLRLSCAASGRIFSPYAMGWYRQAPGKERELVARISWRGSRTYYADSVKGRFTISRDNAKNTVYLQMNSLKPEDTAVYYCNAVFYRKPLRRDYWVQGTQVTVSS | high polyreactivity |
| QVQLVESGGGLVQAGGRLRLSCAASGFTFSGYGMGWSRQAPGKERELVAAISNSGGRTYADSVKGRFTISRDTAQKTVYLQMNSLKPEDTAVYSCAKKPGGFSQASRVDYDYWGQGTQVTVSS | low polyreactivity |
| QVQLVESGGGLDQAGGSLRLSCAPSGSIFGSYAMGWYRQAPGKERELVAAIRRSSASTYYADSVKGRFTISRDNAKNTVYLQMNSLKPEDTAVYYCATQSYSDYGYRYRYAAYDYWGQGTQVTVSS | high polyreactivity |
| QVQLVESGGGLVQAGGSLRLSCAASGFTFARNVMGWYRQAPGKERELVAAITTSGGSTYYADSVKGRFTISRDNAKNTVYLQMKSLKPEDTAVYYCARRVYGYYIPYNYWGQGTQVTVSS | high polyreactivity |
| QVQLVESGGGLVQAGGSLRLSCAASGSTFIANDMGWYRQAPGKERELVAAISWSGGSTYADSVKGRFTISRDNAKNTVYLQMNSLKPEDTAVYYCAADWQVVWDYNYWGQGTQVTVSS | low polyreactivity |
| QVQVVESGGGLVQAGGSLRLSCAASGIIFGAYAMGWYRQAPWKEMELVAAITYSSGSTYYADSVKGRFTISRDNSKNTVYLQMNSLKPEDTAVYYCDKTNFSQSSRFNYDYWGQGTQVTVSS | low polyreactivity |
| QVQLVESGGGLDQAGGSLRLSCAASGFIFPVYAMGWSRPAPGKERELVAAIRRGGSTNYADSVKGRFTISRDNAKNTVYVQMNSLKPEDTAVYYCAKTIGLKHEDEYWGQGTQVTVSS | low polyreactivity |
| QVQLVESGAGLVQAGGSLRLSCAASGLTFVFYAMGWYRQAPGKERELVAAISSSGGSTNYADSVKGRFTISRDNAKNTVYLQMNSLKPEDTAVYYCAAETVSWYRYYYRGQGTQVTVSS | high polyreactivity |
| QVQLVESGGGLVKAGGSLRLSCAASGITFYEYAMGWYRQAPGKERELVAAITTGGTTNYADSVKGRFTISRDNAKNTVYLQMNSLKPEDTAVYYCAKDLDSGGRGYYWGQGTQVTVSS | low polyreactivity |
| QVQLVESGGGLVQAGGSLLLSCAASGLTFYLYAMGWYRQAPGKERELVAPISRRGGSTYYADSVKGRFTISRDNAKNTVYFQMKSLKPEYTAVYYCAGAFYSQTDYKFYYWGQGTQVTVSS | high polyreactivity |
